# The RNAGym collection of RNA variant scans (doi:10.7554/elife.80360)
# B1: HDV Ribozyme (parent)
# chain: GGCCGGCAUGGUCCCAGCCUCCUCGCUGGCGCCGGCUGGGCAACAUUCCGAGGGGACCGUCCCCUCGGUAAUGGCGAAUGGGACCCA
# Variants of: B1
# Test: self-cleavage, relative activity (ratio to wild type); higher = more cleavage; co-transcriptional
row,Variant,self-cleavage
1,G73U G80C,0.2
2,G54U C86A,0.799
3,U37C C84U,0.655
4,C4A G5U,0.122
5,C30G C61G,0.157
6,G29C G39U,0.0992
7,G17U C63A,0.517
8,A56C A87U,0.986
9,A8U A87G,0.754
10,C4A C62A,0.177
11,C15A C62A,0.677
12,G10U C13U,0.122
13,G6U G80U,0.0838
14,G10C U65C,0.831
15,U27A G74C,0
16,U9C A77G,1.05
17,A8C C86G,1.02
18,C26G C41G,0.739
19,G34C U79C,0.227
20,U27G U60G,0.978
21,G40U G52A,0.513

row,Variant,self-cleavage
1,C44U C75G,0.106
2,A42G C61U,0.656
3,C3A C30G,0.0166
4,A45C C48G,0.369
5,U20A G35U,0.0437
6,C22U C48U,0.727
7,G17U C62G,0.492
8,C36A C44U,0.208
9,A45C A70G,0.655
10,C49G C63G,0.475
11,G29C U79C,0.138
12,G5C C75A,0.0536
13,G38U A87G,0.16
14,G29C A71U,0.122
15,G29C A71G,0
16,C21A C33A,0.026
17,G5C G55C,0.0898
18,C19U G76A,0.197
19,C36U C75U,0.244
20,C36G U69G,0.0554
21,C58U A87C,0.905

row,Variant,self-cleavage
1,C66G G80A,0.338
2,U37C G40A,0.95
3,C32U U69C,1.19
4,G6A A43G,0.277
5,C64G C66U,0.955
6,U65G C86U,0.966
7,A56U C66A,1.03
8,A16G G54A,0.727
9,C30U C58G,0.569
10,G35U C63U,0.513
11,G17C A51C,0.308
12,A70U C85A,1.06
13,C22A C32G,0.0437
14,G11C C21U,0.156
15,G55C A77G,1.1
16,A8C C41A,0.798
17,C18G C48U,0
18,U37A A78C,0.0997
19,C14U A51C,1.19
20,G6C C86G,0.131
21,A45C C58A,0.519

row,Variant,self-cleavage
1,A8U U79A,0.525
2,G17U G38U,0.0369
3,G1C A43G,0
4,C3A G31C,0.0166
5,U12C C62A,0.57
6,G40A A78C,0.233
7,C61G C62A,0.958
8,C33U G74U,0.41
9,U37C G53A,1.04
10,G5U C44U,0.369
11,C41G A70G,0.929
12,G11U C19G,0.058
13,C48G C85U,0.831
14,U12A G25A,0.108
15,C15G A42G,0.166
16,U9A G52U,0.858
17,G17A C63U,0.88
18,U9G A42G,0.727
19,U46C U79A,0.798
20,G11C U46G,0.133
21,C24A A56U,0.872
